The source of these data is patent US20250387492A1, “HSP90-TARGETING CONJUGATES AND FORMULATIONS THEREOF” (Fusion Pharmaceuticals Inc., priority 2018, published 2025).

Data set [1] in a line: Biodistribution in H460 tumor model. Particulars: mouse, in vivo, 5 mg/kg. The text has this:
(§1) In other studies, biodistribution of the conjugates was studied with H460 and H69 tumor models.

Data set [2] concerns H460 tumor model mice. Kind of data set: Biodistribution in H460 tumor model. The following applies: 5 mg/kg.
Text: as §1

A short description of data set [3]: Biodistribution in H69 tumor model. Particulars: mouse, in vivo, 5 mg/kg.
Text: as §1

Data set [4] is described as follows: Lu levels in tumor, kidney and liver of mice at 0.5 mg/kg. Particulars: for Tumor uptake (comparison): vs Conjugate 1 and Conjugate 2.
The subject of data set [5] is H69 tumor model mice. Kind of data set: Biodistribution in H69 tumor model. The following applies: H69 tumor model, 5 mg/kg, 48 h, individual animals.
Text: as §1

A short description of data set [6]: in vivo. The following applies: female, Nude, mouse, iv, 3.7 MBq, total radioactivity. The procedure: Radioactive conjugate accumulation was measured in tumor, plasma and healthy tissues of NCI-H460 tumor-bearing mice (lung cancer). […] For each tissue, the percent injected dose per gram of tissue % ID/g was calculated.
Where [7] appears, read: Concentration in H460 tumor, H460 tumor model, individual animals.
Where [8] appears, read: Concentration in Mouse kidney, H460 tumor model, individual animals.
The mark [9] stands for this setting: Concentration in Mouse plasma, H460 tumor model, individual animals.

“Also recorded” adds a separate entry of the source.

For `CCNC(=O)c1nnc(-c2cc(C(C)C)c(O)cc2O)n1-c1ccc(CN2CCN(C(=O)CCNC(=O)[C@@H](CCC(=O)O)NC(=O)[C@@H](CCC(=O)O)NC(=O)[C@@H](CCC(=O)O)NC(=O)CN3CCN4CCN5CCN(CC3)CC(=O)[O][Lu]([O]C(=O)C4)[O]C(=O)C5)CC2)cc1` [Conjugate 2], the level at time molar at 1 h in data set [1] (setting [7]) was found to be 1170 nM; in data set [1] (setting [8]), 1550 nM; in data set [1] (Concentration in Mouse liver, H460 tumor model, individual animals), 16 nM. Besides, the level at time molar at 48 h came out at 220 nM in data set [1] (setting [7]) and 540 nM in data set [1] (setting [8]). The level at time molar at 24 h was 1450 nM in data set [1] (setting [8]); 650 nM in data set [1] (Tumor Levels, H460 (2), H460 study (2)); 240 nM in data set [3] (Concentration in H69 tumor, H69 tumor model, individual animals); 330 nM in data set [3] (Tumor Levels, H69, 5 mg/kg, H69). Besides, in data set [2] (H460 and H69 tumor models), the “Clearance from plasma” value is “clear rapidly from plasma; also recorded: slightly superior”. Further, the “Tumor retention (comparison)” value in data set [2] (H460 and H69 tumor models, Conjugate 1 vs Conjugate 2) was “similar”. Further, the “Concentration in Mouse kidney” value in data set [2] (H460 tumor model, 48 h, individual animals) is 540 nM. The “Average Lu in kidney” value in data set [4] is reported as 2.86 % ID/g. The “Average Lu in tumor” value in data set [4] is 0.92 % ID/g.
In the case of `CCNC(=O)c1nnc(-c2cc(C(C)C)c(O)cc2O)n1-c1ccc(CN2CCN(C(=O)CCNC(=O)[C@@H](CCCCN)NC(=O)[C@@H](CCCCN)NC(=O)[C@@H](CCCCN)NC(=O)CN3CCN(CC(=O)O)CCN(CC(=O)O)CCN(CC(=O)O)CC3)CC2)cc1` [Conjugate 3], the level at time molar at 48 h in data set [1] (setting [7]) was 91 nM; in data set [1] (setting [8]), 4290 nM; in data set [1] (setting [9]), 11 nM; in data set [3] (Concentration in H69 tumor, H69 tumor model, 48 h, individual animals), 200 nM. For the same compound, the level at time molar at 1 h in data set [1] (setting [8]) worked out at 4520 nM; in data set [3] (Concentration in Mouse plasma, H69 tumor model, 1 h, individual animals) it was 1220 nM. The level at time molar at 24 h was found to be 11 nM in data set [1] (setting [9]); 80 nM in data set [3] (Concentration in Mouse liver, H69 tumor model, individual animals); 38 nM in data set [3] (Concentration in Mouse plasma, H69 tumor model, individual animals). Also, in data set [2] (H460 tumor model, 1 h, individual animals), the “Concentration in Mouse liver” value amounted to 70 nM. For the same compound, the “Concentration in H69 tumor” value in data set [5] was determined as 200 nM.
Turning to `CCNC(=O)c1nnc(-c2cc(C(C)C)c(O)cc2O)n1-c1ccc(CN2CCN(C(=O)CCNC(=O)CC[C@@H](NC(=O)CC[C@@H]3C(=O)[O][Lu]4[O]C(=O)CN5CCN(CC(=O)O)CCN3CCN(CC5)CC(=O)[O]4)C(=O)N3CCN(Cc4ccc(-n5c(C(=O)NCC)nnc5-c5cc(C(C)C)c(O)cc5O)cc4)CC3)CC2)cc1` [Conjugate 9], in data set [4], the “Average Lu in Liver” value is given as 2.92 % ID/g; the “Average Lu in kidney” value came out at 2.40 % ID/g; the “Average Lu in tumor” value is 5.73 % ID/g; the “Tumor uptake (comparison)” value is “noticeably higher than Conjugate 1 and Conjugate 2”.
Regarding `CCNC(=O)c1nnc(-c2cc(C(C)C)c(O)cc2O)n1-c1ccc(CN2CCN(C(=O)CCNC(=O)[C@@H](CCC(=O)O)NC(=O)[C@@H](CCC(=O)O)NC(=O)[C@@H](CCC(=O)O)NC(=O)COCCOCCNC(=O)CCCCn3cc(CN(CCCNC(=O)CC[C@H](C(=O)O)N4CCN5CCN6CCN(CC4)CC(=O)[O][Lu]([O]C(=O)C6)[O]C(=O)C5)C(=O)CCCNC(=O)CCCc4ccc(I)cc4)nn3)CC2)cc1` [Conjugate 10], in data set [4], the “Average Lu in Liver” value turned out to be 1.51 % ID/g; the “Average Lu in kidney” value worked out at 11.18 % ID/g; the “Average Lu in tumor” value is recorded as 8.49 % ID/g; the “Tumor uptake (comparison)” value was “noticeably higher than Conjugate 1 and Conjugate 2”.
One may read the tissue uptake as the percentage of the injected dose found per gram of tissue. `CCNC(=O)c1nnc(-c2cc(C(C)C)c(O)cc2O)n1-c1ccc(CN2CCN(C(=O)CCNC(=O)[C@@H](CCC(=O)O)NC(=O)[C@@H](CCC(=O)O)NC(=O)[C@@H](CCC(=O)O)NC(=O)CN3CCN(CC(=O)O)CCN(CC(=O)O)CCN(CC(=O)O)CC3)CC2)cc1` [^177Lu-2, metal not drawn]: the tissue uptake at 6 h amounted to 0.01 %ID/g in data set [6] (Radioactivity in Bone Marrow); 0.01 %ID/g in data set [6] (Radioactivity in Brain); 0.12 %ID/g in data set [6] (Radioactivity in Eyes); 4.29 %ID/g in data set [6] (Radioactivity in Kidney); 0.33 %ID/g in data set [6] (Radioactivity in Liver); 1.21 %ID/g in data set [6] (Radioactivity in Tumor).
